B1: Frizzled 6 (FZD6), wild type, expressed as V5-FZD6-mCherry and as FZD6-GFP [human] / Frizzled 6 (FZD6), wild type, expressed as V5-FZD6-mCherry and as FZD6-GFP [human] (parent)
chain 1: HSLFTCEPITVPRCMKMAYNMTFFPNLMGHYDQSIAAVEMEHFLPLANLECSPNIETFLCKAFVPTCIEQIHVVPPCRKLCEKVYSDCKKLIDTFGIRWPEELECDRLQYCDETVPVTFDPHTEFLGPQKKTEQVQRDIGFWCPRHLKTSGGQGYKFLGIDQCAPPCPNMYFKSDELEFAKSFIGTVSIFCLCATLFTFLTFLIDVRRFRYPERPIIYYSVCYSIVSLMYFIGFLLGDSTACNKADEKLELGDTVVLGSQNKACTVLFMLLYFFTMAGTVWWVILTITWFLAAGRKWSCEAIEQKAVWFHAVAWGTPGFLTVMLLAMNKVEGDNISGVCFVGLYDLDASRYFVLLPLCLCVFVGLSLLLAGIISLNHVRQVIQHDGRNQEKLKKFMIRIGVFSGLYLVPLVTLLGCYVYEQVNRITWEITWVSDHCRQYHIPCPYQAKAKARPELALFMIKYLMTLIVGISAVFWVGSKKTCTEWAGFFKRNRKRDPISESRRVLQESCEFFLKHNSKVKHKKKHYKPSSHKLKVISKSMGTSTGATANHGTSAVAITSHDYLGQETLTEIQTSPETSMREVKADGASTPRLREQDCGEPASPAASISRLSGEQVDGKGQAGSVSESARSEGRISPKSDITDTGLAQSNNLQVPSSSEPSSLKGSTSLLVHPVSGVRKEQGGGCHSDT
chain 2: B1 chain 1

In one experiment the parent is B1. The experiment in a line: dcFRAP. The following applies: with Frizzled 6 (FZD6), GFP channel (FZD6-GFP dimer mutant), without CL (before biotin-anti-V5/avidin surface crosslinking of V5-FZD6-mCherry), N = 23 ROIs, read off a plot.
For the variant chain 1 D347A R350A Y351A, the response (% of pre-bleach) was determined as 85.

The same experiment, now with this note: with Frizzled 6 (FZD6), GFP channel (FZD6-GFP dimer control mutant), without CL (before crosslinking of V5-FZD6-mCherry), N = 75 ROIs, read off a plot.
Turning to chain 1 D347E R350K Y351F, the response (% of pre-bleach) was found to be 85.

Source of the values: article PMC5548745, “Agonist-induced dimer dissociation as a macromolecular step in G protein-coupled receptor signaling” (Nature Communications, 2017).
